Source: PMC2173848

Target: GST-Ypt1p (S. cerevisiae) (UniProt P01123)
Assay: pull-down

Sequence of GST-Ypt1p (S. cerevisiae) (P01123 whole entry): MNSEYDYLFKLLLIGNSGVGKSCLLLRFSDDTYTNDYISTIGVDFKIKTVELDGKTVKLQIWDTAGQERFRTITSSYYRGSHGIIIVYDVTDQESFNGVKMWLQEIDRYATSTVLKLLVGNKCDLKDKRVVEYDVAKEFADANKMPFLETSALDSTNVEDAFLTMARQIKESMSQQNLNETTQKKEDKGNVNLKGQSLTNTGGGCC

For “purified Sec34/35 complex, P40094 1-801; P53271 1-262; Q06096 1-861; P53079 1-417; P53959 1-839”, the fold less binding than with GTP-loaded GST-Ypt1p was over 5 fold and the percent of the complex bound was over 50%.
